Experimental data as given in patent US20040172686A1.

Molecular target: yeast APC (anaphase promoting complex of Schizosaccharomyces pombe)
Assay: cell-based or functional assay

- growth (optical density) of S. pombe nuc2ts at restrictive temperature, HBT cDNA against empty vector control: 4 fold
Substance: HOBBIT (HBT) protein of Arabidopsis thaliana (from UniProt Q8LGU6 1-744)
